Targets include HLA-A*02:01; HLA-A*02:02; HLA-A*02:03; HLA-A*02:06; HLA-A*68:02.
Assay in all cases: IEDB peptide-MHC binding, purified MHC/competitive/radioactivity; ≥ and ≤ were set here for values at or beyond the usual limits of such assays
Where [1] appears, read: source organism: Vaccinia virus WR.
Where [2] appears, read: source organism: Hepacivirus hominis.

The source of these data is the Immune Epitope Database (IEDB).

As to FICNLLLLFV, the IC50 came out at 2.1 nM with HLA-A*02:01 (source organism: SARS-CoV1); 2.5 nM with HLA-A*02:02 (source organism: SARS-CoV1); 15 nM with HLA-A*02:03 (source organism: SARS-CoV1); 4 nM in the assay with HLA-A*02:06 (source organism: SARS-CoV1); 1070 nM with HLA-A*68:02 (source organism: SARS-CoV1).

Regarding FIISTLNKI, the IC50 with HLA-A*02:01 (setting [1]) was 6.1 nM; in the assay with HLA-A*02:02 (setting [1]), 1.6 nM; with HLA-A*02:03 (setting [1]), 0.42 nM; with HLA-A*02:06 (setting [1]), 5.8 nM; with HLA-A*68:02 (setting [1]) it was 1500 nM.

For FIMRNFLRSI, the IC50 in the assay with HLA-A*02:01 (setting [1]) worked out at 0.47 nM; with HLA-A*02:02 (setting [1]), 28 nM; in the assay with HLA-A*02:03 (setting [1]), 0.12 nM; with HLA-A*02:06 (setting [1]), 0.45 nM; with HLA-A*68:02 (setting [1]) it was 131 nM.

Consider FIPIIYSKA, for which the 50% inhibitory concentration (IC50) with HLA-A*02:01 (setting [1]) is 163 nM; with HLA-A*02:02 (setting [1]), 0.56 nM; with HLA-A*02:03 (setting [1]) it was 1.8 nM; with HLA-A*02:06 (setting [1]), 95 nM; in the assay with HLA-A*68:02 (setting [1]) it was 78 nM.

As for FISIYSRPKI, the IC50 in the assay with HLA-A*02:01 (setting [1]) came out at 135 nM; in the assay with HLA-A*02:02 (setting [1]), 23 nM; with HLA-A*02:03 (setting [1]) it was 102 nM; with HLA-A*02:06 (setting [1]) it was 396 nM; with HLA-A*68:02 (setting [1]), 592 nM.

FISPASISSV: the IC50 with HLA-A*02:01 (setting [1]) amounted to 1.4 nM; with HLA-A*02:02 (setting [1]), 3 nM; in the assay with HLA-A*02:03 (setting [1]), 0.11 nM; with HLA-A*02:06 (setting [1]), 2 nM; with HLA-A*68:02 (setting [1]), 17 nM.

Take FISSFLLPLT: the IC50 with HLA-A*02:01 (setting [1]) worked out at 62 nM; with HLA-A*02:02 (setting [1]), 39 nM; with HLA-A*02:03 (setting [1]), 44 nM; in the assay with HLA-A*02:06 (setting [1]), 51 nM; with HLA-A*68:02 (setting [1]) it was 982 nM.

For FITVLTSVDI, the IC50 was 603 nM with HLA-A*02:01 (setting [1]); 1420 nM with HLA-A*02:02 (setting [1]); 237 nM in the assay with HLA-A*02:03 (setting [1]); 1270 nM with HLA-A*02:06 (setting [1]); 1240 nM with HLA-A*68:02 (setting [1]).

With FLAFLLFLV, the IC50 was found to be 8.3 nM with HLA-A*02:01 (source organism: SARS-CoV1); 1.8 nM in the assay with HLA-A*02:02 (source organism: SARS-CoV1); 58 nM with HLA-A*02:03 (source organism: SARS-CoV1); 9 nM in the assay with HLA-A*02:06 (source organism: SARS-CoV1); 66 nM with HLA-A*68:02 (source organism: SARS-CoV1).

As to FLAFLLFLVL, the IC50 with HLA-A*02:01 (source organism: SARS-CoV1) worked out at 11 nM; in the assay with HLA-A*02:02 (source organism: SARS-CoV1) it was 13 nM; with HLA-A*02:03 (source organism: SARS-CoV1), 245 nM; with HLA-A*02:06 (source organism: SARS-CoV1) it was 2000 nM; with HLA-A*68:02 (source organism: SARS-CoV1), 3810 nM.

In the case of FLAFVVFLL, the IC50 is 0.24 nM with HLA-A*02:01 (source organism: SARS-CoV1); 0.41 nM in the assay with HLA-A*02:02 (source organism: SARS-CoV1); 88 nM with HLA-A*02:03 (source organism: SARS-CoV1); 2.6 nM with HLA-A*02:06 (source organism: SARS-CoV1); 391 nM in the assay with HLA-A*68:02 (source organism: SARS-CoV1).

With FLAFVVFLLV, the IC50 was determined as 78 nM in the assay with HLA-A*02:01 (source organism: SARS-CoV1); 2.4 nM with HLA-A*02:02 (source organism: SARS-CoV1); 211 nM in the assay with HLA-A*02:03 (source organism: SARS-CoV1); 2980 nM with HLA-A*02:06 (source organism: SARS-CoV1); 4320 nM in the assay with HLA-A*68:02 (source organism: SARS-CoV1).

Turning to FLAHLQWFA, the IC50 with HLA-A*02:01 (source organism: SARS-CoV1) was 0.1 nM; in the assay with HLA-A*02:02 (source organism: SARS-CoV1) it was 0.1 nM; with HLA-A*02:03 (source organism: SARS-CoV1) it was 0.21 nM; with HLA-A*02:06 (source organism: SARS-CoV1), 0.57 nM; with HLA-A*68:02 (source organism: SARS-CoV1), 17 nM.

Take FLCLFLLPSL: the IC50 with HLA-A*02:01 (source organism: SARS-CoV1) is 0.33 nM; with HLA-A*02:02 (source organism: SARS-CoV1), 0.53 nM; with HLA-A*02:03 (source organism: SARS-CoV1), 2.9 nM; in the assay with HLA-A*02:06 (source organism: SARS-CoV1), 0.37 nM; with HLA-A*68:02 (source organism: SARS-CoV1) it was 729 nM.

In the case of FLDWIKDIMT, the IC50 in the assay with HLA-A*02:01 (setting [1]) came out at 50 nM; with HLA-A*02:02 (setting [1]), 424 nM; in the assay with HLA-A*02:03 (setting [1]) it was 146 nM; with HLA-A*02:06 (setting [1]) it was 140 nM; with HLA-A*68:02 (setting [1]), 4860 nM.

For FLFLAWIML, the IC50 with HLA-A*02:01 (source organism: SARS-CoV1) was 6.4 nM; with HLA-A*02:02 (source organism: SARS-CoV1), 1.8 nM; with HLA-A*02:03 (source organism: SARS-CoV1), 38 nM; in the assay with HLA-A*02:06 (source organism: SARS-CoV1) it was 37 nM; with HLA-A*68:02 (source organism: SARS-CoV1) it was 1340 nM.

On to FLFWFLKSGA, for which the IC50 with HLA-A*02:01 (setting [1]) was determined as 1.9 nM; with HLA-A*02:02 (setting [1]), 1.1 nM; in the assay with HLA-A*02:03 (setting [1]), 0.58 nM; with HLA-A*02:06 (setting [1]), 23 nM; with HLA-A*68:02 (setting [1]) it was 38 nM.

In the case of FLIVAALVFL, the half-inhibitory concentration (IC50) with HLA-A*02:01 (source organism: SARS-CoV1) was 11 nM; with HLA-A*02:02 (source organism: SARS-CoV1), 3 nM; in the assay with HLA-A*02:03 (source organism: SARS-CoV1) it was 162 nM; in the assay with HLA-A*02:06 (source organism: SARS-CoV1), 3.6 nM; with HLA-A*68:02 (source organism: SARS-CoV1), 1090 nM.

Regarding FLLPLTSLVI, the IC50 in the assay with HLA-A*02:01 (setting [1]) is 0.84 nM; in the assay with HLA-A*02:02 (setting [1]) it was 11 nM; with HLA-A*02:03 (setting [1]), 5.1 nM; with HLA-A*02:06 (setting [1]), 2.5 nM; with HLA-A*68:02 (setting [1]) it was 1020 nM.

Take FLLPSLATV: the IC50 came out at 0.34 nM in the assay with HLA-A*02:01 (source organism: SARS-CoV1); 0.13 nM with HLA-A*02:02 (source organism: SARS-CoV1); 0.2 nM with HLA-A*02:03 (source organism: SARS-CoV1); 0.41 nM in the assay with HLA-A*02:06 (source organism: SARS-CoV1); 16 nM with HLA-A*68:02 (source organism: SARS-CoV1).

With FLNGSCGSV, the IC50 with HLA-A*02:01 (source organism: SARS-CoV1) worked out at 5.8 nM; with HLA-A*02:02 (source organism: SARS-CoV1) it was 1 nM; in the assay with HLA-A*02:03 (source organism: SARS-CoV1) it was 0.57 nM; in the assay with HLA-A*02:06 (source organism: SARS-CoV1), 64 nM; in the assay with HLA-A*68:02 (source organism: SARS-CoV1), 318 nM.

Consider FLPQIGGEA, for which the IC50 was determined as 1360 nM with HLA-A*02:01 (setting [1]); 21 nM with HLA-A*02:02 (setting [1]); 121 nM with HLA-A*02:03 (setting [1]); 96 nM in the assay with HLA-A*02:06 (setting [1]); 149 nM with HLA-A*68:02 (setting [1]).

Regarding FLTGTFVTA, the IC50 with HLA-A*02:01 (setting [1]) worked out at 15 nM; with HLA-A*02:02 (setting [1]), 4.7 nM; with HLA-A*02:03 (setting [1]) it was 0.71 nM; in the assay with HLA-A*02:06 (setting [1]) it was 2.1 nM; with HLA-A*68:02 (setting [1]), 896 nM.

As to FMRDEVSFSV, the 50% inhibitory concentration (IC50) with HLA-A*02:01 (setting [2]) is 4 nM; with HLA-A*02:02 (setting [2]) it was 2.2 nM; in the assay with HLA-A*02:03 (setting [2]), 2.7 nM; with HLA-A*02:06 (setting [2]), 10 nM; in the assay with HLA-A*68:02 (setting [2]), 2950 nM.

What is called IC50 is the concentration needed to halve the response being measured.
